Paper PMC4947174 (Nature Communications, 2016)

B1: Rrn3 (Pol I-specific initiation factor), overexpressed in yeast as Rrn3-TEV-ProtA-His7 (natural protein, S. cerevisiae)
chain: MMAFENTSKRPPQDFVAPIDQKKRKVQFSDSTGLVTLQPEEIKDEVFSAAMYSRFVKSALDDLDKNDSTQIGIIANQVALPSKNPERINDKNLNILLDILSSNINRIESSRGTFLIQSIINFEKWWELPPHTLSKYIYFIKILCSSIPKWWQDVSMILVSCFILPIKQTVCHHDMLKYFLRMIPSSMGFIDTYLAKFFPNKNDTRRKLVNYTSNLLKLRGYCSELGFQIWSLLIEKIISIDVELQNELDELDDDVDDDDLEEVDLEDDDDLDDDSGDDDDENCGNSNEELRSGAADGSQSDSEDMDIIEGMDGTEEYNVELTQGIKELSTKLDSILTLVSTHVEEQVTPESLESGEGVGVFNTLTTLFKTHVLPTYYTRSIQYIMFHVSQQQLELMDSFLVTLIDISFAVNEAAEKKIKSLQYLGSYIARAKKLSRTQIIFVASYLTSWLNRYVIEREEEVDQRGGMERFKHFYAAFQALCYIFCFRHNIFRDTDGNWECELDKFFQRMVISKFNPLKFCNENVMLMFARIAQQESVAYCFSIIENNNNERLRGIIGKADSDKKENSAQANTTSSSWSLATRQQFIDLQSYFPYDPLFLKNYKILMKEYYIEWSEASGEYESDGSDD
notes: Rrn3, RNA polymerase I-specific transcription initiation factor, S. cerevisiae; Released from the beads by TEV protease; source: S. cerevisiae strain y2183 with plasmid 729 (Ycplac111-GAL-Rrn3-TEV-ProtA-HIS), galactose-induced; purified in complex with Pol I (IgG beads, TEV elution)

Columns and labels:
[1] = target: Rrn3-free RNA polymerase I (WT Pol I) purified through A135-TEV-ProtA (S. cerevisiae (endogenous in yeast) | S. cerevisiae) (UniProt P10964)
[2] = target: B1; assay: cryo-EM structure; Pol I-Rrn3 complex purified from yeast, cross-linked with 0.5% glutaraldehyde for 2 min; 20 mM Hepes pH 7.8, 100 mM ammonium acetate, 2 mM MgCl2; 32,438 particles of intact complex; 7.5 Å; crystal structures of Pol I and Rrn3 docked into the map; conditions: both partners purified
[3] = target: T1, Pol I subunit A190 (largest subunit) (S. cerevisiae (endogenous in yeast), UniProt P10964 1-1664); assay: as above; conditions: both partners purified
T1 construct: A190, largest subunit of RNA polymerase I, S. cerevisiae; source: endogenous, S. cerevisiae; part of Pol I purified with Rrn3-ProtA (y2183) or through A135-ProtA (y2423)
T1 sequence (P10964 whole entry): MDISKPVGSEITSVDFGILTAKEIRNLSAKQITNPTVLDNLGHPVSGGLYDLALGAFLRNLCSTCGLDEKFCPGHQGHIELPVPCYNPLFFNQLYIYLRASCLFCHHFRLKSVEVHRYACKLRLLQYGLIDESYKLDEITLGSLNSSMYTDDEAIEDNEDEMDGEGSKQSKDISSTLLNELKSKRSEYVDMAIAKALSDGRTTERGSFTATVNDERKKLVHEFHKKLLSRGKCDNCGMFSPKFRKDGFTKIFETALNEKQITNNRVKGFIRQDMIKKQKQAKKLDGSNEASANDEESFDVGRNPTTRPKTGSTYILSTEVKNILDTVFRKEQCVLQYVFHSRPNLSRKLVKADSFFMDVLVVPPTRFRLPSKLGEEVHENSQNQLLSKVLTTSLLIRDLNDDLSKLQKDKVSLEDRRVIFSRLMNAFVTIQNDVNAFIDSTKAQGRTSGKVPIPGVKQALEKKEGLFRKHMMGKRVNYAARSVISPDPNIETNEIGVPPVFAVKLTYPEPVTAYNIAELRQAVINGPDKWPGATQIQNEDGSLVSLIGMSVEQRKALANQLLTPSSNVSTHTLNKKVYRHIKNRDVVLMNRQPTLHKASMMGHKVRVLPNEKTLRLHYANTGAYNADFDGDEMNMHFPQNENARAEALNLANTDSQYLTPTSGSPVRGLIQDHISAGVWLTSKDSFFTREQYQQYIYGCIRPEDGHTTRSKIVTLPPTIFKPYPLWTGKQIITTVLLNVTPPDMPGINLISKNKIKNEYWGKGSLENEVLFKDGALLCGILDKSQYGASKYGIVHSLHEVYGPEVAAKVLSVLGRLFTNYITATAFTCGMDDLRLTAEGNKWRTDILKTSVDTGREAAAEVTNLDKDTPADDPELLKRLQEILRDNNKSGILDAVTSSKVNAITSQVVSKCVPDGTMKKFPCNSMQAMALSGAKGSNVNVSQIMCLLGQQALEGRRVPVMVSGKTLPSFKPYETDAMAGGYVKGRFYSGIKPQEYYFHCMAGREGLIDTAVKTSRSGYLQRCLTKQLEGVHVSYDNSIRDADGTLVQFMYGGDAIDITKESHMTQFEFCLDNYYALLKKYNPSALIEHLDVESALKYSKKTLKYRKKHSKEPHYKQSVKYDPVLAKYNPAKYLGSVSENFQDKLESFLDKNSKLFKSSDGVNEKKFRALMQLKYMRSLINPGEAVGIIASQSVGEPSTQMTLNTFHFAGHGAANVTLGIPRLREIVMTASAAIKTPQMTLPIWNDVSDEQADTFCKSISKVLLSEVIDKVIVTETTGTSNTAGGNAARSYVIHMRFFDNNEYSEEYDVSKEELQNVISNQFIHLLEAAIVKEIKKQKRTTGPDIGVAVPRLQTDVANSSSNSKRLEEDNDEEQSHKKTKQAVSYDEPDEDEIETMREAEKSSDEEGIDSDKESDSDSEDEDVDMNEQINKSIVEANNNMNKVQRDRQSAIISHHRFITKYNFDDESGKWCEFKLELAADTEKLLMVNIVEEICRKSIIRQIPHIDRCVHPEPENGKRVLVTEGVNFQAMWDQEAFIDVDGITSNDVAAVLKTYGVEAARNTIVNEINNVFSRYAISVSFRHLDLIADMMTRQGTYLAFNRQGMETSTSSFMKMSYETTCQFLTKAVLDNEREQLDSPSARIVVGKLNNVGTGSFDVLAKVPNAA

Sequence of Rrn3-free RNA polymerase I (WT Pol I) purified through A135-TEV-ProtA (S. cerevisiae (endogenous in yeast) | S. cerevisiae) (P10964 whole entry, looked up): as the sequence (P10964 whole entry) above

Row | binding result [2] | Molecule | also measured
1 |  | Recombinant His6-Rrn3 (from UniProt P36070 1-627) (natural protein) | promoter-dependent in vitro transcription: purified Pol I-Rrn3 complex against the same concentration of Rrn3-free Pol I with recombinant His6-Rrn3 (70 nM) and CF (20 nM) [1]: < 10 fold
2 | binds | Pol I subunit AC40 (natural protein, S. cerevisiae (endogenous in yeast), UniProt P07703 1-335, looked up, AC40, subunit shared by RNA polymerases I and III, S. cerevisiae; source: endogenous, S. cerevisiae; part of Pol I purified with Rrn3-ProtA (y2183)) MSNIVGIEYNRVTNTTSTDFPGFSKDAENEWNVEKFKKDFEVNISSLDAREANFDLINIDTSIANAFRRIMISEVPSVAAEYVYFFNNTSVIQDEVLAHRIGLVPLKVDPDMLTWVDSNLPDDEKFTDENTIVLSLNVKCTRNPDAPKGSTDPKELYNNAHVYARDLKFEPQGRQSTTFADCPVVPADPDILLAKLRPGQEISLKAHCILGIGGDHAKFSPVSTASYRLLPQINILQPIKGESARRFQKCFPPGVIGIDEGSDEAYVKDARKDTVSREVLRYEEFADKVKLGRVRNHFIFNVESAGAMTPEEIFFKSVRILKNKAEYLKNCPITQ | 
3 | binds | Pol I subunit AC19 (natural protein, S. cerevisiae (endogenous in yeast), UniProt P28000 1-142, looked up, AC19, subunit shared by RNA polymerases I and III, S. cerevisiae; source: endogenous, S. cerevisiae; part of Pol I purified with Rrn3-ProtA (y2183)) MTEDIEQKKTATEVTPQEPKHIQEEEEQDVDMTGDEEQEEEPDREKIKLLTQATSEDGTSASFQIVEEDHTLGNALRYVIMKNPDVEFCGYSIPHPSENLLNIRIQTYGETTAVDALQKGLKDLMDLCDVVESKFTEKIKSM | 
4 | binds | Pol I subunit A14 (natural protein, S. cerevisiae (endogenous in yeast), UniProt P50106 1-137, looked up, A14, subunit of RNA polymerase I, S. cerevisiae; source: endogenous, S. cerevisiae; part of Pol I purified with Rrn3-ProtA (y2183)) MMKGSRRTGNNTATTLNTPVVIHATQLPQHVSTDEVLQFLESFIDEKENIIDSTTMNTISGNAADADAAAVANTSLNIDTNLSSSISQLKRIQRDFKGLPPAQDFSAAPIQVSTTEKKETSIGVSATGGKKTTFADE | 
5 |  | B1 | binding result [3]: binds
